One substance from ChEMBL document CHEMBL1122882, “3,4-O-diacetylisoproterenol. Preparation, structure proof, and beta-receptor effect” (1985) can be followed below.

Data set [1] relates to CC(=O)Oc1ccc(C(Cl)CNC(C)C)cc1OC(C)=O. The following applies: Cerebral cortex.
Description: (§1) Evaluated for the affinity in stimulating cAMP synthesis by beta-1 adrenergic receptor in rat cerebral cortex.
Data set [2] concerns CC(=O)Oc1ccc(C(O)CNC(C)C)cc1OC(C)=O. The following applies: Cerebral cortex.
Description: as §1

Beta-1 adrenergic receptor (Rattus norvegicus), P18090, sequence (P18090 whole entry): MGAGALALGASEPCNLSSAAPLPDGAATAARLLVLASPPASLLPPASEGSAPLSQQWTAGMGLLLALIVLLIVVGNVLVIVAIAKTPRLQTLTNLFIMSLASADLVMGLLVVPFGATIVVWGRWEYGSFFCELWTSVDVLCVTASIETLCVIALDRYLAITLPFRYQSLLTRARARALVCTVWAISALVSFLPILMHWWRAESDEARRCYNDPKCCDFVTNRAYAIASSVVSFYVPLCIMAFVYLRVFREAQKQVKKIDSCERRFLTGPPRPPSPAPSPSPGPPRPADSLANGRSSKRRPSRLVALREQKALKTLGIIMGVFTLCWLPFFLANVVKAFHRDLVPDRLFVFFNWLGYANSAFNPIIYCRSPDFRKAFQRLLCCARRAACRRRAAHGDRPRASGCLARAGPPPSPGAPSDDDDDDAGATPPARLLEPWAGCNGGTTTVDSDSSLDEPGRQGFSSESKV

What is called Km is the substrate concentration at which the rate is half of its maximum. “Beta-1 adrenergic receptor (Rattus norvegicus), P18090”: the results for the Km in data set [1] and in data set [2] were 28 µM and 25 µM, respectively.
